The target of data set [1] is T1, AtTCP15-DBD (UniProt Q9C9L2 51-113). Kind of data set: ITC. In general terms: ITC needs no label: the signal is the heat of the interaction.
For data set [2], the target named is T2, AtTCP10-DBD DRH RR mutant (UniProt O82277 1-87, D31A;R32A;H33A;R46A;R48A).
T2 sequence: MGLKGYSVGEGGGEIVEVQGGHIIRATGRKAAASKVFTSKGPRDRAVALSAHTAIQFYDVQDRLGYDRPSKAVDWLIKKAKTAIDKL
Kind of data set: ITC.

Another data set deals with T3, AtTCP10-DBD (UniProt O82277 1-87).
T3 sequence: T2 sequence with A31D, A32R, A33H, A46R, A48R
Put plainly: ITC.

The next data set concerns the target T4, AtTCP10-DBD RR mutant (UniProt O82277 1-87, R46A;R48A).
T4 sequence: T2 sequence with A31D, A32R, A33H
Put plainly: ITC.

Data set [3] concerns the target T5, AtTCP10-DBD DRH mutant (UniProt O82277 1-87, D31A;R32A;H33A).
T5 sequence: T2 sequence with A46R, A48R
Kind of data set: ITC.

For data set [4], the target named is T5, AtTCP10-DBD DRH mutant. Put plainly: EMSA. On the technique in general: Mobility shift assays separate free from complexed probe on a gel.
In data set [5] the target is T1, AtTCP15-DBD. Put plainly: EMSA.

Positions count from the first letter of the chain named.

What is called Kd is a measure of binding affinity in units of concentration. Low readings indicate a tighter complex, high ones a looser complex.

B1: two-site class I DNA (dsDNA)
DNA 1: ATGTGGGTCCGTGT
DNA 2: TACACGGACCCACA
In the data set with AtTCP15-DBD [1], B1 registered a Kd of 109 nM. This counts as sub-micromolar.

B2: three-site class I DNA (dsDNA)
DNA 1: ATGTGGGTCCCACT
DNA 2: TAGTGGGACCCACA
Molecule B2 registered a Kd with AtTCP15-DBD [1] of 38.3 nM. Compared with the last molecule, the Kd is about 2.8-fold lower.

B3: three-site class II DNA (dsDNA)
DNA 1: ATGTGGTCCCCACT
DNA 2: TAGTGGGGACCACA
Regarding B3, the Kd turned out to be 1620 nM in data set [2], 8.5 nM with AtTCP10-DBD, 1130 nM in the data set with AtTCP10-DBD RR mutant and 353 nM with AtTCP10-DBD DRH mutant [3].

B4: one-site class II DNA (dsDNA)
DNA 1: ATAGAGTCCCGTGT
DNA 2: TACACGGGACTCTA
In the case of B4, the affinity with AtTCP10-DBD, expressed as Kd, was 366 nM. Moreover, the binding result in the data set with AtTCP10-DBD DRH mutant [4] was “binds”.

B5: two-site class II DNA (dsDNA)
DNA 1: ATGTGGTCCCGTGT
DNA 2: TACACGGGACCACA
B5 yielded a Kd with AtTCP10-DBD of 351 nM. Besides, in the data set with AtTCP10-DBD DRH mutant [4], the binding result is reported as “binds”.

B6: one-site class I DNA (dsDNA)
DNA 1: ATAGAGGTCCGTGT
DNA 2: TACACGGACCTCTA
For the molecule B6, in the data set with AtTCP15-DBD [5], the binding result is recorded as “binds”.
